Measured values taken from US11278600B2, “Human alpha-galactosidase variants” (Codexis, Inc., priority 2014, dated 2022).

Assays:
Assay type in all cases: biochemical
[1] = HTP-analysis of supernatants pretreated with bovine serum (MUGal hydrolysis); settings: activity of the variant/activity of Rd2BB (SEQ ID NO: 10), yeast culture supernatant
Procedure: Yeast (INVSc1) cells transformed with vectors expressing GLA and GLA variants using the lithium acetate method were selected on SD-Ura agar plates. After 72 h incubation at 30° C. colonies were placed into the wells of Axygen® 1.1 ml 96-well deep well plates filled with 200 μl/well SD-Ura broth (2 g/L SD-Ura, 6.8 g/L yeast nitrogen base without amino acids [Sigma Aldrich]), 3.06 g/L sodium dihydrogen phosphate, 0.804 g/L disodium hydrogen phosphate, pH 6.0 supplemented with 6% glucose. The cells were allowed to grow for 20-24 hours in a Kuhner shaker (250 rpm, 30° C., and 85% relative humidity). Overnight culture samples (20 μL) were transferred into Corning Costar® 96-well deep plates filled with 380 µL of SD-ura broth supplemented with 2% glucose. The plates were incubated for 66-84 h in a Kuhner shaker (250 rpm, 30° C., and 85% relative humidity). The cells were then pelleted (4000 rpm×20 min), and the supernatants isolated and stored at 4° C. prior to analysis.
GLA variants were challenged with bovine serum to simulate the conditions the variants encounter following infusion into a patient. First, 20 μL of yeast culture supernatant and 80 μL, of bovine serum were added to the wells of a 96-well round bottom plate. The plates were sealed and incubated at 37° C. for 1 h. For the assay, 50 μL of serum-challenged sample was mixed with 25 μL, of 1 M citrate buffer pH 4.3 and 25 μL, of 4 mM MUGal in McIlvaine buffer pH 4.8. The reactions were mixed briefly and incubated at 37° C. for 180 minutes, prior to quenching with 100 μL, of 1 M sodium carbonate. Hydrolysis was analyzed using a SpectraMax® M2 microplate reader monitoring fluorescence (Ex. 355 nm, Em. 448 nm).

[2] = HTP-analysis of supernatants pretreated with base (MUGal hydrolysis); settings: challenge at pH 7.6; activity of the variant/activity of Rd2BB (SEQ ID NO: 10); yeast culture supernatant
How it was run: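 Fluorescence of released 4-MU (Ex 355 nm, Em 448 nm) after carbonate quench reports MUGal hydrolysis by GLA variants secreted from INVSc1 yeast. Before the acidic (pH 4.3-4.8) 30-180 min reaction at 37° C, supernatants had been pre-incubated at pH 7.0-9.7 for 1-18 h at 37° C.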

[3] = HTP-analysis of supernatants pretreated with acid (MUGal hydrolysis); settings: challenge at pH 4.2; activity of the variant/activity of Rd2BB (SEQ ID NO: 10); yeast culture supernatant
How it was run: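 Fluorescence of MUGal hydrolysis (Ex. 355 nm, Em. 448 nm) is read after sodium carbonate quench. The enzyme source is INVSc1 yeast culture supernatant, first exposed to pH 3.3-4.3 McIlvaine buffer at 37° C. for 1-3 h, then reacted at pH 4.8 for 30-180 minutes.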

[4] = HTP-analysis of yeast culture supernatants, no challenge (MUGal hydrolysis); settings: activity of the variant/activity of Rd2BB (SEQ ID NO: 10), yeast culture supernatant
How it was run: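 GLA variants expressed in yeast INVSc1, secreted into SD-Ura broth over 66-84 h at 30° C; clarified supernatants tested without challenge. Supernatant mixed with McIlvaine buffer pH 4.8 and 2 mM MUGal (citrate/KCl, pH 4.6), 37° C for 30-180 min, carbonate-quenched, fluorescence Ex 355/Em 448 nm.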

Molecule | Relative Activity of GLA Variants After Challenge with Serum [1] | Relative Activity of GLA Variants After Challenge at pH 7.6 [2] | Relative Activity of GLA Variants After Challenge at pH 4.2 [3] | Relative Activity of GLA Variants After No Challenge (NC) [4]
240 (protein, Synthetic Polypeptide sequence of Variant No. 240 of mature Human GLA) LDNGLARTPTMGWLHWERFMCNLDCQEEPDSCISEKLFMEMAELMVSEGWKDAGYEYLCIDDCWMAPQRDSEGRLQADPQRFPHGIRQLANYVHSKGLKLGIYADVGNKTCAGFPGSFGYYDIDAQTFADWGVDLLKFDGCYCDSLENLADGYKHMSLALNRTGRSIVYSCEWPLYMWPFQKPNYTEIRQYCNHWRNFADIDDSWASIKSILDWTSFNQERIVDVAGPGGWNDPDMLVIGNFGLSWNQQVTQMALWAIMAAPLFMSNDIRHISPQAKALLQDKDVIAINQDPLGKQGYQLRQGDNFEVWERPLSGLAWAVAMINRQEIGGPRSYTIAVASLGKGVACNLACFITQLLPVKRKLGFYEWTSRLKSHINPTGTVLLQLENTMQMSLKDLL | + (+ = 0.5 to 1.5 relative activity over Rd2BB (SEQ ID NO: 10)) | + (+ = 0.5 to 1.5 relative activity over Rd2BB (SEQ ID NO: 10)) | + (+ = 0.5 to 1.5 relative activity over Rd2BB (SEQ ID NO: 10)) | − (− = <0.5 relative activity over Rd2BB (SEQ ID NO: 10))
245 (protein, Synthetic Polypeptide sequence of Variant No. 245 of mature Human GLA) LDNGLARTPTMGWLHWERFMCNLDCQEEPDSCISEKLFMEMAELMVSEGWKDAGYEYLCIDDCWMAPQRDSEGRLQADPQRFPHGIRQLANYVHSKGLKLGIYADVGNKTCAGFPGSFGYYDIDAQTFADWGVDLLKFDGCYCDSLENLADGYKHMSLALNRTGRSIVYSCEWPLYMWPFQKPNYTEIRQYCNHWRNFADIDDSWASIKSILDWTSFNQERIVDVAGPGGWNDPDMLVIGNFGLSWDQQVTQMALWAIMAAPLFMSNDLRHISPQAKALLQDKDVIAINQDPLGKQGYQLRKGDNFEVWERPLSGLAWAVAVINRQEIGGPRSYTIAVASLGKGVACNPACFITQLLPVKRKLGLYEWTSRLKSHVNPTGTVLLQLENTMQMSLKDLL | ++ (++ = 1.5 to 2.5 relative activity over Rd2BB (SEQ ID NO: 10)) | +++ (+++ = >2.5 relative activity over Rd2BB (SEQ ID NO: 10)) | +++ (+++ = >2.5 relative activity over Rd2BB (SEQ ID NO: 10)) | ++ (++ = 1.5 to 2.5 relative activity over Rd2BB (SEQ ID NO: 10))
244 (protein, Synthetic Polypeptide sequence of Variant No. 244 of mature Human GLA) LDNGLARTPTMGWLHWERFMCNLDCQEEPDSCISEKLFMEMAELMVSEGWKDAGYEYLCIDDCWMAPQRDSEGRLQADPQRFPHGIRQLANYVHSKGLKLGIYADVGNKTCAGFPGSFGYYDIDAQTFADWGVDLLKFDGCYCDSLENLADGYKHMSLALNRTGRSIVYSCEWPLYMWPFQKPNYTEIRQYCNHWRNFADIDDSWASIKSILDWTSFNQERIVDVAGPGGWNDPDMLVIGNFGLSWDQQVTQMALWAIMAAPLFMSNDLRHISPQAKALLQDKDVIAINQDPLGKQGYQLRKGDNFEVWERPLSGDAWAVAMINRQEIGGPRSYTIAVASLGKGVACNPGCFITQLLPVKRKLGFYEWTSRLRSHINPTGTVLLQLENTMQMSLKDLL | +++ (+++ = >2.5 relative activity over Rd2BB (SEQ ID NO: 10)) | +++ (+++ = >2.5 relative activity over Rd2BB (SEQ ID NO: 10)) | +++ (+++ = >2.5 relative activity over Rd2BB (SEQ ID NO: 10)) | +++ (+++ = >2.5 relative activity over Rd2BB (SEQ ID NO: 10))
241 (protein, Synthetic Polypeptide sequence of Variant No. 241 of mature Human GLA) LDNGLARTPTMGWLHWERFMCNLDCQEEPDSCISEKLFMEMAELMVSEGWKDAGYEYLCIDDCWMAPQRDSEGRLQADPQRFPHGIRQLANYVHSKGLKLGIYADVGNKTCAGFPGSFGYYDIDAQTFADWGVDLLKFDGCYCDSLENLADGYKHMSLALNRTGRSIVYSCEWPLYMWPFQKPNYTEIRQYCNHWRNFADIDDSWASIKSILDWTSFNQERIVDVAGPGGWNDPDMLVIGNFGLSWDQQVTQMALWAIMAAPLFMSNDLRHISPQAKALLQDKDVIAINQDPLGKQGYQLRQGDNFEVWERPLSGLAWAVAVINRQEIGGPRSYTIAVASLGDGVACNPACFITQLLPVKRKLGFYEWTSRLKSHVNPTGTVLLQLENTMQMSLKDLL | ++ (++ = 1.5 to 2.5 relative activity over Rd2BB (SEQ ID NO: 10)) | +++ (+++ = >2.5 relative activity over Rd2BB (SEQ ID NO: 10)) | +++ (+++ = >2.5 relative activity over Rd2BB (SEQ ID NO: 10)) | ++ (++ = 1.5 to 2.5 relative activity over Rd2BB (SEQ ID NO: 10))
242 (protein, Synthetic Polypeptide sequence of Variant No. 242 of mature Human GLA) LDNGLARTPTMGWLHWERFMCNLDCQEEPDSCISEKLFMEMAELMVSEGWKDAGYEYLCIDDCWMAPQRDSEGRLQADPQRFPHGIRQLANYVHSKGLKLGIYADVGNKTCAGFPGSFGYYDIDAQTFADWGVDLLKFDGCYCDSLENLADGYKHMSLALNRTGRSIVYSCEWPLYMWPFQKPNYTEIRQYCNHWRNFADIDDSWASIKSILDWTSFNQERIVDVAGPGGWNDPDMLVIGNFGLSWDQQVTQMALWAIMAAPLFMSNDLRHISPQAKALLQDKDVIAINQDPLGKQGYQLRQGDNFEVWERPLSGLAWAVAVINRQEIGGPRSYTIAVASLGGGVACNPACFITQLLPVKRKLGLYEWTSRLKSHINPTGTVLLQLENTMQMSLKDLL | +++ (+++ = >2.5 relative activity over Rd2BB (SEQ ID NO: 10)) | +++ (+++ = >2.5 relative activity over Rd2BB (SEQ ID NO: 10)) | +++ (+++ = >2.5 relative activity over Rd2BB (SEQ ID NO: 10)) | +++ (+++ = >2.5 relative activity over Rd2BB (SEQ ID NO: 10))
243 (protein, Synthetic Polypeptide sequence of Variant No. 243 of mature Human GLA) LDNGLARTPTMGWLHWERFMCNLDCQEEPDSCISEKLFMEMAELMVSEGWKDAGYEYLCIDDCWMAPQRDSEGRLQADPQRFPHGIRQLANYVHSKGLKLGIYADVGNKTCAGFPGSFGYYDIDAQTFADWGVDLLKFDGCYCDSLENLADGYKHMSLALNRTGRSIVYSCEWPLYMWPFQKPNYTEIRQYCNHWRNFADIDDSWASIKSILDWTSFNQERIVDVAGPGGWNDPDMLVIGNFGLSWDQQVTQMALWAIMAAPLFMSNDLRHISPQAKALLQDKDVIAINQDPLGKQGYQLRKGDNFEVWERPLSGLAWAVAMINRQEIGGPRSYTIPVASLGGGVACNPGCFITQLLPVKRKLGFYEWTSRLRSHINPTGTVLLQLENTMQMSLKDLL | +++ (+++ = >2.5 relative activity over Rd2BB (SEQ ID NO: 10)) | +++ (+++ = >2.5 relative activity over Rd2BB (SEQ ID NO: 10)) | +++ (+++ = >2.5 relative activity over Rd2BB (SEQ ID NO: 10)) | +++ (+++ = >2.5 relative activity over Rd2BB (SEQ ID NO: 10))
